Data reported in patent US20150344540A1, “NOVEL GLP-1 RECEPTOR AGONISTS WITH CHOLESTEROL EFFLUX ACTIVITY” (NOVO NORDISK A/S, priority 2012, published 2015).
Where no end group is shown, it is not given here. [ ]: non-standard residue; d: D form. Aib = CC(C)(N)C(=O)O

B1: [Gly8,Glu23,Val25,Glu34,Lys35,Val36,Lys37]-GLP-1-(7-37)-peptidyl-Glu-Phe-Leu-Gly (peptide)
peptide: HGEGTFTSDVSSYLEGEAVKEFIAWLVEKVKEFLG
B2: [Aib8,Glu23,Val25,Gln26,Glu34,Ala35,Val36,Ala37]-GLP-1-(7-37)-peptidyl-Glu-Phe-Leu amide (peptide)
peptide: H[Aib]EGTFTSDVSSYLEGEAVQEFIAWLVEAVAEFL-NH2
modifications: N-terminus assumed
SMILES: CC[C@H](C)[C@H](NC(=O)[C@H](Cc1ccccc1)NC(=O)[C@H](CCC(=O)O)NC(=O)[C@H](CCC(N)=O)NC(=O)[C@@H](NC(=O)[C@H](C)NC(=O)[C@H](CCC(=O)O)NC(=O)CNC(=O)[C@H](CCC(=O)O)NC(=O)[C@H](CC(C)C)NC(=O)[C@H](Cc1ccc(O)cc1)NC(=O)[C@H](CO)NC(=O)[C@H](CO)NC(=O)[C@@H](NC(=O)[C@H](CC(=O)O)NC(=O)[C@H](CO)NC(=O)[C@@H](NC(=O)[C@H](Cc1ccccc1)NC(=O)[C@@H](NC(=O)CNC(=O)[C@H](CCC(=O)O)NC(=O)C(C)(C)NC(=O)[C@@H](N)Cc1c[nH]cn1)[C@@H](C)O)[C@@H](C)O)C(C)C)C(C)C)C(=O)N[C@@H](C)C(=O)N[C@@H](Cc1c[nH]c2ccccc12)C(=O)N[C@@H](CC(C)C)C(=O)N[C@H](C(=O)N[C@@H](CCC(=O)O)C(=O)N[C@@H](C)C(=O)N[C@H](C(=O)N[C@@H](C)C(=O)N[C@@H](CCC(=O)O)C(=O)N[C@@H](Cc1ccccc1)C(=O)N[C@@H](CC(C)C)C(N)=O)C(C)C)C(C)C
B3: [Aib8,Glu23,Val25,Arg26,Glu34,Arg35,Val36,Arg37]-GLP-1-(7-37)-peptidyl-Glu-Phe-Leu-Lys amide (peptide)
peptide: H[Aib]EGTFTSDVSSYLEGEAVREFIAWLVERVREFLK-NH2
modifications: N-terminus assumed
SMILES: CC[C@H](C)[C@H](NC(=O)[C@H](Cc1ccccc1)NC(=O)[C@H](CCC(=O)O)NC(=O)[C@H](CCCNC(=N)N)NC(=O)[C@@H](NC(=O)[C@H](C)NC(=O)[C@H](CCC(=O)O)NC(=O)CNC(=O)[C@H](CCC(=O)O)NC(=O)[C@H](CC(C)C)NC(=O)[C@H](Cc1ccc(O)cc1)NC(=O)[C@H](CO)NC(=O)[C@H](CO)NC(=O)[C@@H](NC(=O)[C@H](CC(=O)O)NC(=O)[C@H](CO)NC(=O)[C@@H](NC(=O)[C@H](Cc1ccccc1)NC(=O)[C@@H](NC(=O)CNC(=O)[C@H](CCC(=O)O)NC(=O)C(C)(C)NC(=O)[C@@H](N)Cc1c[nH]cn1)[C@@H](C)O)[C@@H](C)O)C(C)C)C(C)C)C(=O)N[C@@H](C)C(=O)N[C@@H](Cc1c[nH]c2ccccc12)C(=O)N[C@@H](CC(C)C)C(=O)N[C@H](C(=O)N[C@@H](CCC(=O)O)C(=O)N[C@@H](CCCNC(=N)N)C(=O)N[C@H](C(=O)N[C@@H](CCCNC(=N)N)C(=O)N[C@@H](CCC(=O)O)C(=O)N[C@@H](Cc1ccccc1)C(=O)N[C@@H](CC(C)C)C(=O)N[C@@H](CCCCN)C(N)=O)C(C)C)C(C)C
B4: [Aib8,Glu23,Val25,Gln26,Glu34,Gln35,Aib36,Gln37]-GLP-1-(7-37)-peptidyl-Glu-Phe-Leu amide (peptide)
peptide: H[Aib]EGTFTSDVSSYLEGEAVQEFIAWLVEQ[Aib]QEFL-NH2
modifications: N-terminus assumed
SMILES: CC[C@H](C)[C@H](NC(=O)[C@H](Cc1ccccc1)NC(=O)[C@H](CCC(=O)O)NC(=O)[C@H](CCC(N)=O)NC(=O)[C@@H](NC(=O)[C@H](C)NC(=O)[C@H](CCC(=O)O)NC(=O)CNC(=O)[C@H](CCC(=O)O)NC(=O)[C@H](CC(C)C)NC(=O)[C@H](Cc1ccc(O)cc1)NC(=O)[C@H](CO)NC(=O)[C@H](CO)NC(=O)[C@@H](NC(=O)[C@H](CC(=O)O)NC(=O)[C@H](CO)NC(=O)[C@@H](NC(=O)[C@H](Cc1ccccc1)NC(=O)[C@@H](NC(=O)CNC(=O)[C@H](CCC(=O)O)NC(=O)C(C)(C)NC(=O)[C@@H](N)Cc1c[nH]cn1)[C@@H](C)O)[C@@H](C)O)C(C)C)C(C)C)C(=O)N[C@@H](C)C(=O)N[C@@H](Cc1c[nH]c2ccccc12)C(=O)N[C@@H](CC(C)C)C(=O)N[C@H](C(=O)N[C@@H](CCC(=O)O)C(=O)N[C@@H](CCC(N)=O)C(=O)NC(C)(C)C(=O)N[C@@H](CCC(N)=O)C(=O)N[C@@H](CCC(=O)O)C(=O)N[C@@H](Cc1ccccc1)C(=O)N[C@@H](CC(C)C)C(N)=O)C(C)C
B5: [Aib8,Glu23,Val25,Glu34,Lys35,Phe36,Lys37]-GLP-1-(7-37)-peptidyl-Glu-Phe-Phe amide (peptide)
peptide: H[Aib]EGTFTSDVSSYLEGEAVKEFIAWLVEKFKEFF-NH2
modifications: N-terminus assumed
SMILES: CC[C@H](C)[C@H](NC(=O)[C@H](Cc1ccccc1)NC(=O)[C@H](CCC(=O)O)NC(=O)[C@H](CCCCN)NC(=O)[C@@H](NC(=O)[C@H](C)NC(=O)[C@H](CCC(=O)O)NC(=O)CNC(=O)[C@H](CCC(=O)O)NC(=O)[C@H](CC(C)C)NC(=O)[C@H](Cc1ccc(O)cc1)NC(=O)[C@H](CO)NC(=O)[C@H](CO)NC(=O)[C@@H](NC(=O)[C@H](CC(=O)O)NC(=O)[C@H](CO)NC(=O)[C@@H](NC(=O)[C@H](Cc1ccccc1)NC(=O)[C@@H](NC(=O)CNC(=O)[C@H](CCC(=O)O)NC(=O)C(C)(C)NC(=O)[C@@H](N)Cc1c[nH]cn1)[C@@H](C)O)[C@@H](C)O)C(C)C)C(C)C)C(=O)N[C@@H](C)C(=O)N[C@@H](Cc1c[nH]c2ccccc12)C(=O)N[C@@H](CC(C)C)C(=O)N[C@H](C(=O)N[C@@H](CCC(=O)O)C(=O)N[C@@H](CCCCN)C(=O)N[C@@H](Cc1ccccc1)C(=O)N[C@@H](CCCCN)C(=O)N[C@@H](CCC(=O)O)C(=O)N[C@@H](Cc1ccccc1)C(=O)N[C@@H](Cc1ccccc1)C(N)=O)C(C)C
B6: [Aib8,Lys23,Val25,Glu34,Lys35,Aib36,Lys37]-GLP-1-(7-37)-peptidyl-Glu-Phe-Leu amide (peptide)
peptide: H[Aib]EGTFTSDVSSYLEGKAVKEFIAWLVEK[Aib]KEFL-NH2
modifications: N-terminus assumed
SMILES: CC[C@H](C)[C@H](NC(=O)[C@H](Cc1ccccc1)NC(=O)[C@H](CCC(=O)O)NC(=O)[C@H](CCCCN)NC(=O)[C@@H](NC(=O)[C@H](C)NC(=O)[C@H](CCCCN)NC(=O)CNC(=O)[C@H](CCC(=O)O)NC(=O)[C@H](CC(C)C)NC(=O)[C@H](Cc1ccc(O)cc1)NC(=O)[C@H](CO)NC(=O)[C@H](CO)NC(=O)[C@@H](NC(=O)[C@H](CC(=O)O)NC(=O)[C@H](CO)NC(=O)[C@@H](NC(=O)[C@H](Cc1ccccc1)NC(=O)[C@@H](NC(=O)CNC(=O)[C@H](CCC(=O)O)NC(=O)C(C)(C)NC(=O)[C@@H](N)Cc1c[nH]cn1)[C@@H](C)O)[C@@H](C)O)C(C)C)C(C)C)C(=O)N[C@@H](C)C(=O)N[C@@H](Cc1c[nH]c2ccccc12)C(=O)N[C@@H](CC(C)C)C(=O)N[C@H](C(=O)N[C@@H](CCC(=O)O)C(=O)N[C@@H](CCCCN)C(=O)NC(C)(C)C(=O)N[C@@H](CCCCN)C(=O)N[C@@H](CCC(=O)O)C(=O)N[C@@H](Cc1ccccc1)C(=O)N[C@@H](CC(C)C)C(N)=O)C(C)C

target: human GLP-1 receptor (human, UniProt P43220); test: cell-based or functional assay

**Q.** How did the “CRE luciferase EC50, 0% HSA” value turn out when B1 was run?
**A.** 0.464 nM

**Q.** What about the “CRE luciferase EC50, 1% HSA” value of the same binder?
**A.** 0.122 nM

**Q.** B2 was tested. Which “CRE luciferase EC50, 0% HSA” value did it give?
**A.** 0.622 nM

**Q.** And the “CRE luciferase EC50, 1% HSA” value?
**A.** 0.273 nM

**Q.** Which “CRE luciferase EC50, 0% HSA” value does the source give for B3 here?
**A.** 0.433 nM

**Q.** What about the “CRE luciferase EC50, 1% HSA” value of the same binder?
**A.** 0.118 nM

**Q.** B4 was tested. Which “CRE luciferase EC50, 0% HSA” value did it give?
**A.** 0.156 nM

**Q.** And the “CRE luciferase EC50, 1% HSA” value?
**A.** 0.04 nM

**Q.** How did the “CRE luciferase EC50, 0% HSA” value turn out when B5 was run?
**A.** 1.22 nM

**Q.** And the “CRE luciferase EC50, 1% HSA” value?
**A.** 0.431 nM

**Q.** With B6 as the binder, how does the “CRE luciferase EC50, 0% HSA” value read?
**A.** 0.311 nM

**Q.** What about the “CRE luciferase EC50, 1% HSA” value of the same binder?
**A.** 0.173 nM
